Source: US20250369024A1, “Acyloin Condensation Reactions, Enzymes, and Products Thereof” (Mojia Biotech Pte. Ltd., priority 2023, published 2025)

Experiments:
Type in all cases: cell-based, E. coli
Formaldehyde = assay: HACS screening, formaldehyde-formyl-CoA condensation in vivo (resting cells), glycolate; conditions: 2.5 mM formaldehyde and 20 mM formate, 0.5 hours
Excerpt: To implement the C1 elongation pathway for glycolate production in vivo, we engineered vectors to independently control expression of various HACS candidates and the acyl-CoA transferase from Clostridium aminobutyricum (CaAbfT), with HACS under control of the IPTG-inducible T7 promoter in pETDuet-1 and CaAbfT under control of a cumate-inducible T5 promoter in pCDFDuet-1 (FIG. 14C). As a host for these vectors, we used an engineered strain of E. coli based on MG1655(DE3) with knockouts for formaldehyde (ΔfrmA) and formate (ΔfdhF ΔfdnG ΔfdoG) oxidation as well as for glycolate utilization (ΔglcD), which we expected could compete or interfere with the analysis of our pathway (FIG. 14B).
In vivo product synthesis was conducted using M9 minimal media (6.78 g/L Na2HPO4, 3 g/L KH2PO4, 1 g/L NH4Cl, 0.5 g/L NaCl, 2 mM MgSO4, 100 μM CaCl2), and 15 μM thiamine-HCl) unless otherwise stated. […]
Cells from the above pre-cultures were then centrifuged (4000 rpm, 22° C.), washed with the above minimal media without any carbon source, and resuspended with 1 mL of above minimal media containing indicated amounts of carbon source. […] After incubation at 30° C. for 0.5 hours, the cells were pelleted by centrifugation and the media analyzed (FIG. 14A).

Glycolaldehyde = assay: HACS screening, glycolaldehyde-C1 condensation (resting cells), glyceric acid; conditions: 20 mM glycolaldehyde and 20 mM formate, 3 hour
Excerpt: (§1) To implement the C1 elongation pathway for glyceric acid production in vivo, we engineered vectors to independently control expression of various HACS candidates and the acyl-CoA transferase from Clostridium aminobutyricum (CaAbfT), with HACS under control of the IPTG-inducible T7 promoter in pCDFDuet-1 and CaAbfT under control of a cumate-inducible T5 promoter in pETDuet-1. As a host for these vectors, we used an engineered strain of E. coli based on MG1655(DE3) with knockouts for formaldehyde (ΔfrmA) and formate (ΔfdhF ΔfdnG ΔfdoG) oxidation as well as for glycolate utilization (ΔglcD).
(§2) In vivo product synthesis was conducted using M9 minimal media (6.78 g/L Na2HPO4, 3 g/L KH2PO4, 1 g/L NH4Cl, 0.5 g/L NaCl, 2 mM MgSO4, 100 μM CaCl2), and 15 μM thiamine-HCl) unless otherwise stated. Cells were initially grown in 96-deep well plates (USA Scientific, Ocala, FL) containing 0.5 mL of the above media further supplemented with 20 g/L glycerol, 10 g/L tryptone, and 5 g/L yeast extract. […]
(§3) Cells from the above pre-cultures were then centrifuged (4000 rpm, 22° C.), washed with the above minimal media without any carbon source, and resuspended with 1 mL of above minimal media containing indicated amounts of carbon source. […] After incubation at 30° C. for 3 hour, the cells were pelleted by centrifugation and the media was analyzed using HPLC.

Methional = assay: HACS screening, methional-C1 condensation (resting cells), desmeninol; conditions: 20 mM methional and 20 mM formate, 3 hours
Excerpt: as §1, with “leucic” for “glyceric”
as §2
as §3, with “hours,” for “hour,”

Isovaleraldehyde = assay: HACS screening, isovaleraldehyde-C1 condensation (resting cells), leucic acid; conditions: 20 mM isovaleraldehyde and 20 mM formate, 3 hours
Excerpt: as §1, with “leucic” for “glyceric”
as §2
as §3, with “hours,” for “hour,”

B1: RuHACL: Engineered 2-hydroxyphytanoyl-CoA lyase [Rhodospirillales bacterium URHD0017], SEQ ID NO: 1 (protein)
chain: MSEVDGATLIARSLKQQGIDHLFGVVGFPITAIAAAAQKEGVAYLGMRNEQSAAYAAAAYGYLTGRPGAAVVVTGPGVVHGLSGLANAQQNCWPMILIGGASETYRGGMGAFQEERQVLIASPFCKFAHGIESVARIPFYVEMATRNAIYGRPGATYLDMPDDIIRGTCETDKIAQAERVPEAPRSVAPAENVEAALDLLEKAQRPLVLLGKGMAWSRGEDEVRAFIERTQVPFVRSPMGKGVMPDDHPLSASAARTLALQQADVIFLMGARLNWIFHFGLPPRYAKDVKVIQLDIAPEEIGHNKPTEVALVGDGKAIMAQLNKALVNRQWFHPKDTPWRQALTKKAAENVATIKPQVDDDQGPAGYYRALRDVAAWMPKNAILSAEGANTMDIGLTQLASSNARSVLNAGTYGTMGVGLGQAIAAAVSDPSRPVIHLSGDSAIGFSGMEMETLVRYNLPVKIVVLNNGGIGPGMPEIPENPMFNLKPNALIYGARYDKVMEAFGGKGIFVKEPKDIRKALDEAMAFKGPALVNVVLSQGSTRKAQQFAWHS
modifications: Rhodospirillales bacterium URHD0017 engineered 2-hydroxyphytanoyl-CoA lyase
Formaldehyde
  Product flux, substrate Formaldehyde, product Glycolate: 44.5 μM/OD/h
Glycolaldehyde
  Product flux, substrate Glycolaldehyde, product Glycerate: 7.2 μM/OD/h
Methional
  Product flux, substrate Methional, product Desmeninol: 20.0 μM/OD/h
Isovaleraldehyde
  Product flux, substrate Isovaleraldehyde, product Leucic acid: 12.5 μM/OD/h
